Consider one molecule from paper PMC5156543 (Molecular Biology of the Cell, 2016).

In this experiment the target is T1, Vps35-3xHA (S. cerevisiae, UniProt P34110 1-944).
T1 sequence: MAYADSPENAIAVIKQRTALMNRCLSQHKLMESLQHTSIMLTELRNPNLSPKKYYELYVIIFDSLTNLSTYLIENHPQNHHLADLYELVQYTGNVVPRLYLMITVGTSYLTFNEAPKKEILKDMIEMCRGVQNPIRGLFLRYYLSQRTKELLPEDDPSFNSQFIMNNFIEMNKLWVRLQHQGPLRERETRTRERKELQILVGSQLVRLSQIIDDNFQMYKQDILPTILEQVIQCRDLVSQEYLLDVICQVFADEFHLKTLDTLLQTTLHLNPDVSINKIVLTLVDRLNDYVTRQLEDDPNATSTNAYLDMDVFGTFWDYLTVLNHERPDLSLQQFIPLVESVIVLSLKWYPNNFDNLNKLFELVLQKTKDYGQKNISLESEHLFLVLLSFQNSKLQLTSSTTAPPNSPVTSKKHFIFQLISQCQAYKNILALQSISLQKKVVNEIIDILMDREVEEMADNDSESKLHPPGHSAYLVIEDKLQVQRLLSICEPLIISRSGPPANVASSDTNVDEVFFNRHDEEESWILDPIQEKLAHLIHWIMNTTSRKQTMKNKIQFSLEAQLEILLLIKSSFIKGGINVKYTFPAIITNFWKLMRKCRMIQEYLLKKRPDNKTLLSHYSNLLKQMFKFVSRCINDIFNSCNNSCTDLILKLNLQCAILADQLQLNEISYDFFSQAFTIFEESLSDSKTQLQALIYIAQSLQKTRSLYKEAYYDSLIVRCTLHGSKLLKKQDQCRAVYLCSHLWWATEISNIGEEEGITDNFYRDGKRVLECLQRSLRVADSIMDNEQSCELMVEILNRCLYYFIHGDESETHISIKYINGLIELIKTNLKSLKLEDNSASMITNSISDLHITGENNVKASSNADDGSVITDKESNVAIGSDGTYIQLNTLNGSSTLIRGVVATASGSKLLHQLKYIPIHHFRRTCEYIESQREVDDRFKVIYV
The experiment is described as follows: co-IP.

B1: Δ63-125Chs3-GFP (natural protein)
chain: MTGLNGDDPDDYYLNLNQDEESLLRSRHSVGSGAPHRQGSLVRPERSRLNNPDNPHFYYAQKDEGVAEDEFDKDGDVDNFEESSTQPINKSIKPLRKETNDTLSFWQMYCYFITFWAPAPILAFCGMPKKERQMAWREKVALISVILYIGAIVAFLTFGFTKTVCSSSKLRLKNNEVSTEFVVINGKAYELDTSSRSGIQDVEVDSDTLYGPWSDAGKDASFLFQNVNGNCHNLITPKSNSSIPHDDDNNLAWYFPCKLKNQDGSSKPNFTVENYAGWNCHTSKEDRDAFYGLKSKADVYFTWDGIKNSSRNLIVYNGDVLDLDLLDWLEKDDVDYPVVFDDLKTSNLQGYDLSLVLSNGHERKIARCLSEIIKVGEVDSKTVGCIASDVVLYVSLVFILSVVIIKFIIACYFRWTVARKQGAYIVDNKTMDKHTNDIEDWSNNIQTKAPLKEVDPHLRPKKYSKKSLGHKRASTFDLLKKHSSKMFQFNESVIDLDTSMSSSLQSSGSYRGMTTMTTQNAWKLSNENKAVHSRNPSTLLPTSSMFWNKATSSPVPGSSLIQSLDSTIIHPDIVQQPPLDFMPYGFPLIHTICFVTCYSEDEEGLRTTLDSLSTTDYPNSHKLLMVVCDGLIKGSGNDKTTPEIALGMMDDFVTPPDEVKPYSYVAVASGSKRHNMAKIYAGFYKYDDSTIPPENQQRVPIITIVKCGTPAEQGAAKPGNRGKRDSQIILMSFLEKITFDERMTQLEFQLLKNIWQITGLMADFYETVLMVDADTKVFPDALTHMVAEMVKDPLIMGLCGETKIANKAQSWVTAIQVFEYYISHHQAKAFESVFGSVTCLPGCFSMYRIKSPKGSDGYWVPVLANPDIVERYSDNVTNTLHKKNLLLLGEDRFLSSLMLKTFPKRKQVFVPKAACKTIAPDKFKVLLSQRRRWINSTVHNLFELVLIRDLCGTFCFSMQFVIGIELIGTMVLPLAICFTIYVIIFAIVSKPTPVITLVLLAIILGLPGLIVVITATRWSYLWWMCVYICALPIWNFVLPSYAYWKFDDFSWGDTRTIAGGNKKAQDENEGEFDHSKIKMRTWREFEREDILNRKEESDSFVA
Take B1: the “level of coIP relative to wild-type Chs3” value is ~0.25 of the level with wild-type Chs3.
